# Assay results as given in patent publication US20240352132A1 (JIANGSU HENGRUI PHARMACEUTICALS, published 2024).
# B1: Omab (antibody, V domains shown)
# VH: EVQLVESGGGLVQPGGSLRLSCAASGYTFTSYWLHWVRQAPGKGLEWVGMIDPSNSDTRFNPNFKDRFTISADTSKNTAYLQMNSLRAEDTAVYYCATYRSYVTPLDYWGQGTLVTVSS
# VL: DIQMTQSPSSLSASVGDRVTITCKSSQSLLYTSSQKNYLAWYQQKPGKAPKLLIYWASTRESGVPSRFSGSGSGTDFTLTISSLQPEDFATYYCQQYYAYPWTFGQGTKVEIK
# notes: anti-HGFR antibody (WO2013003680A1); also called onartuzumab
# B2: EM2 (bispecific antibody, human IgG1, kappa)
# heavy 1: not shown
# light 1: DIQMTQSPSSLSASVGDRVTITCKSSQSLLYTSSQKNYLAWYQQKPGKAPKLLIYWASTRESGVPSRFSGSGSGTDFTLTISSLQPEDFATYYCQQYYAYPWTFGQGTKVEIKRTVAAPSVFIFPPSDEQLKSGTASVVCLLNNFYPREAKVQWKVDNALQSGNSQESVTEQDSKDSTYSLSSTLTLSKADYEKHKVYACEVTHQGLSSPVTKSFNRGEC
# heavy 2: QVQLVESGGGVVQPGRSLRLSCAASGFTFSTYGMHWVRQAPGKGLEWVAVIWDDGSYKYYGDSVKGRFTISRDNSKNTLYLQMNSLRAEDTAVYYCARDGITMVRGVMKDYFDYWGQGTLVTVSSGGGGSGIPPKIECLPIDISIDEGKVLTVASAFTGEPTPEVTWSTGGRKIHSQEQGRFHIENTDDSTTLTIKDVQKQDGGLYTLTLRNEFGSDSATVNIHIRSIDKTHTCPPCPAPELLGGPSVFLFPPKPKDTLMISRTPEVTCVVVDVSHEDPEVKFNWYVDGVEVHNAKTKPREEQYNSTYRVVSVLTVLHQDWLNGKEYKCKVSNKALPAPIEKTISKAKGQPREPQVCTLPPSREEMTKNQVSLSCAVKGFYPSDIAVEWESNGQPENNYKTTPPVLDSDGSFFLVSKLTVDKSRWQQGNVFSCSVMHEALHNHYTQKSLSLSPGK
# light 2: DIQLTQSPSSLSASVGDRVTITCRASQDISSALVWYQQKPGKAPKLLIYDASSLESGVPSRFSGSESGTDFTLTISSLQPEDFATYYCQQFNSYPLTFGGGTKVEIKGGGGSSGAPRFLTRPKASVVSVGKDATLSCQIVGNPFPQVSWEKDKQPVTAGVRFRLAQDGDLYRLKILDLQLSDSGQYVCRARNAHGEAFACLGLQVDAEA
# notes: Format 2: Omab Fab (knob) plus Zal.1 Titin/Obscurin-substituted Fab (hole); four chains
# B3: Ab10.1 (antibody, V domains shown)
# VH: QVQLVESGGGVVQPGRSLRLSCAASGFSLSDYGVHWVRQAPGKGLEWLAVIWSGGSTNYADAFVSRLTISKDNSKNTVYLQMNSLRAEDTAVYYCARNHDNPYIYAMDYWGQGTTVTVSS
# VL: DIVLTQSPDSLAVSLGERATINCRADKSVSTSTYNYLHWYQQKPGQPPKLLIYRGSFLATGVPDRFSGSGSGTDFTLTISSLQAEDVAVYYCQHSRDLPPTFGQGTKLEIK
# notes: CDR mutant of Ab10
# B4: EM1 (bispecific antibody, human IgG1, kappa)
# heavy 1: not shown
# light 1: DIQLTQSPSSLSASVGDRVTITCRASQDISSALVWYQQKPGKAPKLLIYDASSLESGVPSRFSGSESGTDFTLTISSLQPEDFATYYCQQFNSYPLTFGGGTKVEIKGGGGSGGGGDIVLTQSPDSLAVSLGERATINCRADKSVSTSTYNYLHWYQQKPGQPPKLLIYRGSFLATGVPDRFSGSGSGTDFTLTISSLQAEDVAVYYCQHSRDLPPTFGQGTKLEIKRTVAAPSVFIFPPSDEQLKSGTASVVCLLNNFYPREAKVQWKVDNALQSGNSQESVTEQDSKDSTYSLSSTLTLSKADYEKHKVYACEVTHQGLSSPVTKSFNRGEC
# heavy 2: EVQLVESGGGLVQPGGSLRLSCAASGYTFTSYWLHWVRQAPGKGLEWVGMIDPSNSDTRFNPNFKDRFTISADTSKNTAYLQMNSLRAEDTAVYYCATYRSYVTPLDYWGQGTLVTVSSGGGGSGIPPKIECLPIDISIDEGKVLTVASAFTGEPTPEVTWSTGGRKIHSQEQGRFHIENTDDSTTLTIKDVQKQDGGLYTLTLRNEFGSDSATVNIHIRSIDKTHTCPPCPAPELLGGPSVFLFPPKPKDTLMISRTPEVTCVVVDVSHEDPEVKFNWYVDGVEVHNAKTKPREEQYNSTYRVVSVLTVLHQDWLNGKEYKCKVSNKALPAPIEKTISKAKGQPREPQVCTLPPSREEMTKNQVSLSCAVKGFYPSDIAVEWESNGQPENNYKTTPPVLDSDGSFFLVSKLTVDKSRWQQGNVFSCSVMHEALHNHYTQKSLSLSPGK
# light 2: DIQMTQSPSSLSASVGDRVTITCKSSQSLLYTSSQKNYLAWYQQKPGKAPKLLIYWASTRESGVPSRFSGSGSGTDFTLTISSLQPEDFATYYCQQYYAYPWTFGQGTKVEIKGGGGSSGAPRFLTRPKASVVSVGKDATLSCQIVGNPFPQVSWEKDKQPVTAGVRFRLAQDGDLYRLKILDLQLSDSGQYVCRARNAHGEAFACLGLQVDAEA
# notes: Format 1: Zal.1 Fv on Ab10.1 Fab (knob) plus Omab Titin/Obscurin-substituted Fab (hole); four chains
# Legend:
# [1] = target: T1, HGFR protein extracellular domain with the His tag (human, UniProt P08581 25-932); assay: flow cytometry on HGFR CHO-S stably transfected cells, R-PE goat anti-human (H+L) detection
# T1 construct: also called HGFR-His; human HGFR
# Description: (§1) The binding activity of antigen-binding molecules specifically binding to HGFR and EGFR to cells was detected using a flow cytometer. EGFR CHO-S stably transfected cell strain, HGFR CHO-S stably transfected cell strain, and H1975-HGF or MKN-45 tumor cell strain at 1×10⁶ cells/mL were blocked with 1% BSA PBS buffer, followed by the addition of diluted antibody samples at different concentrations (C25 was a negative control, which was an IgGI antibody protein of irrelevant targets, the same applied hereinafter), and the mixtures were incubated for 1 h. After the mixtures were washed twice, R-PE-goat anti-human (H+L) antibody (Invitrogen, CAT #H10104) was added, and the mixtures were incubated for 0.5 h. After the plate was washed twice, fluorescence signals were read using a flow cytometer.
# [2] = target: T1, HGFR protein extracellular domain with …; assay: SPR Biacore T200, antibody captured on Protein A, antigen in flow, 1:1 fit
# Method: (§2) The affinity of the test molecule for human EGFR (SEQ ID NO: 42) or human HGFR protein (SEQ ID NO: 43) was determined by Biacore T200 (GE) as follows:
# (§3) The antibody molecules were affinity-captured on a Protein A biosensor chip of which antigens flowed through the surface for 180 s, and then the antibody molecules were dissociated for 600 s. The reaction signals were detected in real time using a Biacore T200 instrument to obtain association and dissociation curves. After dissociation was completed for each cycle, the biosensor chip was washed with 10 mM Gly-HCl (pH 1.5) for regeneration. Data were fitted using a 1:1 model, and affinity values of the test molecules were obtained. In this example, the positive control MCLA was a bispecific antibody specifically binding to HGFR and EGFR (see PB8532 in WO2019031965 for specific sequences).
# [3] = target: T1, HGFR protein extracellular domain with …; assay: SPR Biacore T200
# Method: as §2, §3
# [4] = target: T2, human EGFR protein extracellular domain with the His tag (human, UniProt P00533 25-645); assay: competition ELISA, blocks EGF-mFc on captured EGFR-His
# T2 construct: also called EGFR-His
# Method: 1 μg/mL rabbit anti-His antibody (GenScript, A01857) was coated overnight at 4° C. and then blocked. After the plate was washed, 2 μg/mL EGFR-His (SEQ ID NO: 42) was added, and the plate was incubated for 1 h. […] After the plate was washed, a tetramethylbenzidine solution was added for color development. Finally, a stop solution was added. OD450 values were measured on a microplate reader.
# [5] = target: T1, HGFR protein extracellular domain with …; assay: competition ELISA, blocks bio-HGF-His on coated HGFR-His
# Method: The ability of the antibodies to block HGF/HGFR was tested by ELISA. 5 μg/mL HGFR-His (for the sequence, see SEQ ID NO: 43) was coated overnight at 4° C. and then blocked. […] After the plate was washed, horseradish peroxidase-streptavidin (Jackson, 016-030-084) was added, and the plate was incubated for 1 h. After the plate was washed, a tetramethylbenzidine solution was added for color development. Finally, a stop solution was added. OD450 values were measured on a microplate reader.
# [6] = target: T2, human EGFR protein extracellular domain …; assay: SPR Biacore T200, antibody captured on Protein A, antigen in flow, 1:1 fit
# Method: as §2, §3
# [7] = target: T2, human EGFR protein extracellular domain …; assay: flow cytometry on EGFR CHO-S stably transfected cells, R-PE goat anti-human (H+L) detection
# Description: as §1
Binder,EC50 (read off the curve) [1],Kd [2],fold affinity against Ab10 [3],koff [2],kon [2],IC50 [4],IC50 [5],Kd [6],koff [6],kon [6],EC50 (read off the curve) [7]
B1,~0.4 nM,–,–,–,–,–,–,–,–,–,–
B2,–,3.04 nM,–,–,–,–,–,–,–,–,–
B3,~0.5 nM,7.56 nM,≥ 4 fold,0.000309 s⁻¹,40800 M⁻¹ s⁻¹,–,–,–,–,–,–
B4,–,2.26 nM,–,0.000124 s⁻¹,54800 M⁻¹ s⁻¹,2.37 µg/mL,0.25 µg/mL,7.29 nM,0.00103 s⁻¹,142000 M⁻¹ s⁻¹,~2 nM
